Experimental findings from patent publication US20250147035A1, “METHODS FOR DETECTION OF POST-TRANSLATIONAL MODIFICATIONS” (Quantum-Si Incorporated, priority 2023, published 2025) are described below.

Primed or numbered codes have the meaning given here. Where no end group is shown, it is not given here. [ ]: non-standard residue; d: D form. pS = N[C@@H](COP(=O)(O)O)C(=O)O; Biotin′ = not defined here

Assay [1] deals with SAKLDEESILKQ-Biotin. The assay is described as follows: Octet binding assay of PTM-specific affinity reagent candidates, SA control peptide. Particulars: SA = […]-Biotin (control); fixed concentration of reagent. An excerpt:
(§1) This Example characterizes an exemplary phosphorylated threonine recognizer for use in methods of the disclosure.
For orientation: Biolayer interferometry detects binding as a change in optical thickness at a sensor tip.

The subject of assay [2] is p[…]-Biotin. The assay is described as follows: Octet binding assay of PTM-specific affinity reagent candidates, pTQR peptide. Particulars: fixed concentration of reagent. The method, then:
(§2) This Example characterizes an exemplary phosphorylated threonine recognizer for use in methods of the disclosure. Octet binding assays at a fixed concentration of PTM-specific affinity reagent candidates were evaluated for binding with phospho-threonine, phospho-serine containing peptides (p[…]-Biotin; p[…]-Biotin; p[…]-Biotin), and control peptides without modifications ([…]-Biotin; […]-Biotin).

In assay [3] the test system is p[…]-Biotin. The assay is described as follows: Octet binding assay of PTM-specific affinity reagent candidates, pTA peptide. Particulars: fixed concentration of reagent.
Excerpt: as §1

In assay [4] the test system is […]-Biotin. The assay is described as follows: Octet binding assay of PTM-specific affinity reagent candidates, TA control peptide. Particulars: fixed concentration of reagent.
Excerpt: as §1

For assay [5], the system named is EFLN-pT-RFYK. The assay is described as follows: Octet binding platform, peptide-coated sensors dipped in PM12. Particulars: phospho-threonine in the middle of the peptide. An excerpt:
(§3) Next, control peptides ([…] and […]) were compared to model peptides (EFLN-pT-RFYK and p[…]) to evaluate phospho-threonine detection in different peptide motifs using a post-translational modification-specific (PTM-specific) affinity reagent that binds to phospho-threonine (PM12). Using the Octet binding platform, Octet sensors were coated with the peptide of interest and dipped in buffer containing the PTM-specific affinity reagent. […] In contrast, no shift was detected with the corresponding control peptides having unphosphorylated threonine (FIGS. 14A-14B).

Assay [6] relates to pT-[…]. Described as above. Particulars: phospho-threonine at the N-terminus.
Excerpt: as §3

The test system of assay [7] is EFLNTRFY
The assay is described as follows: Octet binding platform, peptide-coated sensors dipped in PM12, control peptide. Particulars: unphosphorylated threonine.
Excerpt: as §3

For assay [8], the system named is […]. The description is as above. Particulars: unphosphorylated threonine.
Excerpt: as §3

Assay [9] deals with phospho-threonine peptides (p[…], QRFpTLAYPDDD, p[…]). Type of assay: binding.
The subject of assay [10] is phospho-tyrosine (p[…]). The assay is described as follows: Polarization binding assays of PM12. Particulars: FITC-labeled peptide, PM12 2 μM. The method, then:
(§4) FIGS. 21A-21E provide data from polarization binding assays using a fixed concentration of PM12 with 2 μM and FITC-labeled peptides (p[…], p[…], p[…], QRFp[…], p[…]).
as §2

For assay [11], the system named is phospho-serine (p[…], p[…]). The assay is described as follows: Polarization and Octet binding assays of PM12. Particulars: PM12 fixed concentration. Here is the method:
as §4, §2

For assay [12], the system named is phospho-threonine peptides. Description: Two-stage on-chip recognition run, phospho-threonine peptides. Type of assay: binding. Here is the method: (§5) The phospho-threonine-specific affinity reagent, PM12, was evaluated for its ability to bind phospho-threonine residues residing in a range of motifs and at different positions in peptides (FIG. 15). To evaluate the PTM-specific affinity reagent, two-stage on-chip recognition runs were performed as described in Example 3. […] Peptide sequencing following PTM detection was not affected for either peptide (FIGS. 16A-16C).
(§6) This was followed by a second stage in which reagents for peptide sequencing (amino acid recognition molecules, cleaving reagents) were added to the chip to determine sequence information for the single peptide molecules. The plots shown at the top of FIGS. 16B and 16C are stacked plots showing the number of apertures (y-axis) with recognition taking place on the chip over the course of two-stage recognition runs (x-axis) performed in parallel with peptides having unphosphorylated threonine (FIG. 16B) or phosphorylated threonine (FIG. 16C). Each plot shown at the bottom of FIGS. 16B and 16C is an example binding trace from a single aperture on the chip.
(§7) Using the two-stage recognition run format described above, PTM recognition of phospho-threonine in various peptide motifs was evaluated. Phospho-threonine detection by the PTM-specific affinity reagent in different peptide motifs was evaluated with unphosphorylated threonine ([…], […], […], […], and […]) and compared to their phosphorylated threonine counterparts (QRF-pT-LAYPDDD, RFL-pT-LAYPDDD, FLA-pT-LAYPDDD, LAQ-PT-LAYPDDD, and AQR-pT-LAYPDDD). […] The PTM-specific affinity reagent was also evaluated for its ability to detect phospho-threonine residues at different positions in peptides. […] Similar results were obtained by performing the same two-stage chip run on phospho-threonine peptides spiked in the CDNF libraries (FIGS. 19A-19H).

Assay [13] has as its system unphosphorylated threonine peptides. The assay is described as follows: Two-stage on-chip recognition run, unphosphorylated threonine peptides. It counts as binding. Here is the method: as §5, §6, §7
The test system of assay [14] is pT-ENR and pT-TDY peptides. The assay is described as follows: Two-stage chip run, phospho-threonine peptides spiked in the CDNF libraries. It counts as binding. The method, then:
as §7

For assay [15], the target named is T1, p…-Biotin.
T1 sequence (peptide, phosphothreonine at 1; C-terminal Biotin): TAKLDEESILKQ
The assay is described as follows: Octet (BLI), fixed reagent concentration.

For assay [16], the target named is T2, …-Biotin.
T2 sequence (peptide, C-terminal Biotin): TAKLDEESILKQ
The assay is described as follows: Octet (BLI), fixed reagent concentration.

For assay [17], the target named is T3, pSAKLDEESILKQ-Biotin.
T3 peptide: [pS]AKLDEESILKQ-{Biotin′}
The assay is described as follows: Octet (BLI), fixed reagent concentration.
Protocol: Octet binding assays at a fixed concentration of PTM-specific affinity reagent candidates were evaluated for binding with phospho-threonine, phospho-serine containing peptides (p[sequence]-Biotin; p[sequence]-Biotin; p[sequence]-Biotin), and control peptides without modifications ([sequence]-Biotin; [sequence]-Biotin).

B1: PM12 (Mycobacterium tuberculosis/FhaA) (other)
chain: MGSAGTSVTLQLDDGSGRTYQLREGSNIIGRGQDAQFRLPDTGVSRRHLEIRWDGQVALLADLNSTNGTTVNNAPVQEWQLADGDVIRLGHSEIIVRMH
Regarding B1, in assay [1], the “Octet binding assay response, SA” value worked out at 0.6. Besides, in assay [2], the “Octet binding assay response, pTQR” value was 7.1. Also, the “Octet binding assay response, pTA” value in assay [3] is reported as 6.9. Further, the “Octet binding assay response, TA” value in assay [4] stood at 0.6. Moreover, the Octet shift in assay [5] is 6.8; in assay [6], 4.4; in assay [7], “no shift”; in assay [8] it was “no shift”. For the same molecule, the specificity for phospho-threonine entry in [9] (FITC-labeled peptides, PM12 2 μM) is given as “high specificity for phospho-threonine”. The “preference for phospho-threonine location in the peptide” value in assay [9] (internal vs N-terminal phospho-threonines, […]) is given as “slight preference for internal phospho-threonines”. In [10], the binding for phospho-tyrosine entry was “low binding”. Moreover, in [11], the binding for phospho-serine result is given as “low binding”. Further, in [12] (QRF-pT-, RFL-pT-, FLA-pT-, LAQ-pT-, AQR-pT-LAYPDDD, first 30 minutes), the “phospho-threonine detection in different peptide motifs” value was “able to detect phospho-threonine in all five peptide motifs tested”. For the same molecule, the “pulsing in the first 30 minutes” value is recorded as “fast pulsing” in assay [12] (model peptide RFL-pT-LAYPDDD) and “no pulsing” in [13] (control peptide […]). Further, the “recognition of phospho-threonine at different positions in peptides” value in assay [12] (pulsing in the first 30 minutes) was “recognized phospho-threonine residues at the N-terminus, the C-terminus, and in the middle of peptides”. For the same molecule, the “signal for unphosphorylated threonine residues at corresponding positions” value in assay [13] (N-terminus, C-terminus, middle) was “no signal was observed”. For the same molecule, the “signal with unphosphorylated peptide motifs” value in assay [13] (QRFT-, RFLT-, FLAT-, LAQT-, AQRT-LAYPDDD) is reported as “no signal was detected”. For the same molecule, in assay [14] (in the same run), the “discrimination of phosphorylated and unphosphorylated CDNF peptides” value is “able to discriminate between phosphorylated and unphosphorylated CDNF peptides”. For the same molecule, in assay [14] (peptide traces), the “binding to phospho-threonine CDNF peptides” value is “binding to pT-ENR and pT-TDY peptides”. Moreover, the results for the Octet binding assay response in [15], in assay [16] and in assay [17] were 6.9, 0.6 and 0.7, respectively.
